Literature values as cited in article PMC9179313.
“And” between values parts separate entries of the source, which are not always exact repeats. Identical values can stand only once.

Target: ICAM1 (Homo sapiens) (UniProt P05362)
Sequence (P05362 28-480): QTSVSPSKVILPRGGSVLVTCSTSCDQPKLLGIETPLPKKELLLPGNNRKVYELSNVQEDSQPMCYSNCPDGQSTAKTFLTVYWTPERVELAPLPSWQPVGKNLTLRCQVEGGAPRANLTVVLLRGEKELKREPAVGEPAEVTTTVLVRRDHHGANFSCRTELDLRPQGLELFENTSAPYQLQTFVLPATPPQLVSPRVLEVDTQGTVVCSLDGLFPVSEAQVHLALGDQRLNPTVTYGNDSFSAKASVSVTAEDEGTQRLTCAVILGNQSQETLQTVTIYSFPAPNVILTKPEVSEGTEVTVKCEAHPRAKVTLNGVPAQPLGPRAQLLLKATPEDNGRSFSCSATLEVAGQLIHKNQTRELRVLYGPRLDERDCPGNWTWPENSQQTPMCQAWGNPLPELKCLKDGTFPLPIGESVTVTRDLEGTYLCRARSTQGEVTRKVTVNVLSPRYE

Sequence of LFA1 (integrin alpha-L beta-2) (P20701 26-1090): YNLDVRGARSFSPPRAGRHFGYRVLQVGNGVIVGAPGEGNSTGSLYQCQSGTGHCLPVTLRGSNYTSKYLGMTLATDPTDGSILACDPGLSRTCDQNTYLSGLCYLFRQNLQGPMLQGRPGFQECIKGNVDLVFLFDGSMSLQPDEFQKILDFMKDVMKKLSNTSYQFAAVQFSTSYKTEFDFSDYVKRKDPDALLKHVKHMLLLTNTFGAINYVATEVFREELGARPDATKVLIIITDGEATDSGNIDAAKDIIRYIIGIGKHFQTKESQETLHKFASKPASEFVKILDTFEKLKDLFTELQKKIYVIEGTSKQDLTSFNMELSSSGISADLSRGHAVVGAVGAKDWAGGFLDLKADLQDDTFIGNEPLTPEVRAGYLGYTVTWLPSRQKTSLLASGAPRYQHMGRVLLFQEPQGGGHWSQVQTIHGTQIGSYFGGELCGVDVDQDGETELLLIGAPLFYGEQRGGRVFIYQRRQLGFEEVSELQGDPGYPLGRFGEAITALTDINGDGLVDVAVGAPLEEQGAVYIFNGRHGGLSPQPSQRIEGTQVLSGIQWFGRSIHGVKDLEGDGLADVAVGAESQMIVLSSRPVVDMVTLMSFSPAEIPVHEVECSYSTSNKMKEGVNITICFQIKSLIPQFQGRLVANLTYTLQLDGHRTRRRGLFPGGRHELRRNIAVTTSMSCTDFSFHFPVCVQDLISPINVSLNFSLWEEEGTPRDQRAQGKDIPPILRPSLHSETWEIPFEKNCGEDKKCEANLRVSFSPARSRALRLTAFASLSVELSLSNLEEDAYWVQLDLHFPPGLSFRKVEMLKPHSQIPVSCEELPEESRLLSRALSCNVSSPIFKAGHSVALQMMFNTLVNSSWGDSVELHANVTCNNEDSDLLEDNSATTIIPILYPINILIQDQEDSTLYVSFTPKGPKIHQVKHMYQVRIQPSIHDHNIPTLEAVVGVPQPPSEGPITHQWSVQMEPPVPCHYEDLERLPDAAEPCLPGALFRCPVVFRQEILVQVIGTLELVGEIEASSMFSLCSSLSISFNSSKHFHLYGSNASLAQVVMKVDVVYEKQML
Sequence of LFA1 (integrin alpha-L beta-2) (P05107 23-700, further chain): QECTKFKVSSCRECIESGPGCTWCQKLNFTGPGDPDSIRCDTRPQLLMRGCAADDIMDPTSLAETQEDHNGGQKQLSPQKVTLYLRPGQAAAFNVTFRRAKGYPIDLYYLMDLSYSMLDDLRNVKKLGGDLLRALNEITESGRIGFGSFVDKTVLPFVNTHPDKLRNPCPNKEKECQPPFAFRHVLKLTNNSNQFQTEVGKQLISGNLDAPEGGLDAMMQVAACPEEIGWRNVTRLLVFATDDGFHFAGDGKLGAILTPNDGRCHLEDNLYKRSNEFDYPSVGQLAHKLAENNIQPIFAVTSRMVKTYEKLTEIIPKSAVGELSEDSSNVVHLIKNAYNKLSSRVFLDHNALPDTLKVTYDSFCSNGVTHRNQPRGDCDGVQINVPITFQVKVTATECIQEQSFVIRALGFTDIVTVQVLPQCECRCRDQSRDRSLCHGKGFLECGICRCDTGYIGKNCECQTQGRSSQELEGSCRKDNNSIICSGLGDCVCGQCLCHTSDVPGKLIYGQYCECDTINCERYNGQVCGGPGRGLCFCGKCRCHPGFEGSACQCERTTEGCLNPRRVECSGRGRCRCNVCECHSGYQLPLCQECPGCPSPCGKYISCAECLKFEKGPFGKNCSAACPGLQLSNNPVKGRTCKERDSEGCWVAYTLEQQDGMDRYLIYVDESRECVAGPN

Kd: 26 µM and 36 µM
Substance: LFA1 (integrin alpha-L beta-2) (from UniProt P20701)
